Laboratory results published in publication PMC10977697 (PLOS ONE, 2024).

Tests used:
PCSK9 = target: T1, PCSK9 (human, UniProt Q8NBP7 31-692, biotin on lysines (Sulfo-NHS-LC-biotin)); assay: SPR; settings: both partners purified
T1 construct: also called PCSK9FL; hPCSK9 FL

[1] = target: T2, PCSK9ΔCRD (PCSK9 lacking the C-terminal Cys-rich domain CRD) (human, UniProt Q8NBP7 31-452, biotin on lysines (Sulfo-NHS-LC-biotin)); assay: ELISA; settings: one partner purified
T2 construct: also called PCSK9DCRD; PCSK9dCRDTEV
T2 sequence (Q8NBP7 31-452, stated change not applied): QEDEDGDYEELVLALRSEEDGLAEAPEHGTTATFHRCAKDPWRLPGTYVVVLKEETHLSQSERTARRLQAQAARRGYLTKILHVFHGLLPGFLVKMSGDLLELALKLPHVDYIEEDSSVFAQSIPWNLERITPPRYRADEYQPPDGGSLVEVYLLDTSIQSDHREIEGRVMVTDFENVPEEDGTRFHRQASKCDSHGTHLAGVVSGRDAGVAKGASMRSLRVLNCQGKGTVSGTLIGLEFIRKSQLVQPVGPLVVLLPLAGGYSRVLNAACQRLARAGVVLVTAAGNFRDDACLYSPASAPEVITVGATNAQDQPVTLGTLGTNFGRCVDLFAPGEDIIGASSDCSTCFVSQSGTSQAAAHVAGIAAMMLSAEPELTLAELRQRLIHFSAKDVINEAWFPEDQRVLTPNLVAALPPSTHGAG

T1 sequence (Q8NBP7 31-692): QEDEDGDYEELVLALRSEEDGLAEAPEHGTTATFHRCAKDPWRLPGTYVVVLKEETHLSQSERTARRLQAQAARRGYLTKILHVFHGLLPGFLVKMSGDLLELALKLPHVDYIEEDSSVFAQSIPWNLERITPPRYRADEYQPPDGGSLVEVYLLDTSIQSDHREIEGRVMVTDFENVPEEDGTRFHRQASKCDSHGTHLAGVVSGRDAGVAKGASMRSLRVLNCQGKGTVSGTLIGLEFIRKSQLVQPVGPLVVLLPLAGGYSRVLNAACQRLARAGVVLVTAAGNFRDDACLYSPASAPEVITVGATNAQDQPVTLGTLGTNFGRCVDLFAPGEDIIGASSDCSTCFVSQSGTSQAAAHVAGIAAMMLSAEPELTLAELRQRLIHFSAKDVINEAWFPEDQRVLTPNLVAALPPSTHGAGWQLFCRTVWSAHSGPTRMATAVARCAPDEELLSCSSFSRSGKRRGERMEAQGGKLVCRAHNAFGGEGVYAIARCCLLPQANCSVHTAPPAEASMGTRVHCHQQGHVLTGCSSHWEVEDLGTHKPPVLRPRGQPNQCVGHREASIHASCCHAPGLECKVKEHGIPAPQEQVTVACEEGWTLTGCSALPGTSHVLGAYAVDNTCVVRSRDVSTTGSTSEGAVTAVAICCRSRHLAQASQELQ

With ECKGKGAKCSYYMGIDKGYVNYCCTGSCRSGKC (designed binder, Conotoxin-MVIIA scaffold) [PCSK9_CnTx1] the Kd (PCSK9) was 4.5 µM.

ECKGKGAKCSYYMGIDKGYVNYCCTGSCRSGKC (designed binder, Conotoxin-MVIIA scaffold) [PCSK9_CnTx1 displayed on M13 phage] gave an ELISA [1] of 2 and a s/n Ratio [1] of 29.7.
